Data on 1 sequence can be found in publication PMC6854852.

Data set [1] has as its system T1, SAN8-rBraR (unphosphorylated) D96V (Staphylococcus aureus SAN8 (nisin A-resistant mutant of MW2)), ORF:7b46c191.
T1 sequence: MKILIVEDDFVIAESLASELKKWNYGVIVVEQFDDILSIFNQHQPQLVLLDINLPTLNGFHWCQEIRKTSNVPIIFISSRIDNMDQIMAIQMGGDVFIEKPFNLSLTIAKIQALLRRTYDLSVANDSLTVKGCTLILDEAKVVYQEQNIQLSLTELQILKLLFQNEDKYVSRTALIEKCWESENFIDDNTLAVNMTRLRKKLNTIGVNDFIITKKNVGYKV
The experiment in a line: EMSA. The settings on record: EMSA: 5 ng DIG-labeled DNA, rBraR (given as 50 mM) in DIG Gel Shift Kit 2nd Generation (Roche) buffer, 6% native PAGE; binding temperature and pH not stated ….

Data set [2] shares this test system. The experiment in a line: competition. The settings on record: EMSA: 5 ng DIG-labeled DNA, rBraR (given as 50 mM) in DIG Gel Shift Kit 2nd Generation (Roche) buffer, 6% native PAGE; binding temperature and pH not stated …. In general terms: A gel shift assay detects complexes by their altered migration in electrophoresis.

With “ATCACTTAGAAAGCACCATTGCTTTTGTCTAATATGTACGATGAATCTGTATCCTCACTCAAAAATCTACTACGTAGCGATAGCTTTCAACTCTGTAAGGTTCAAACATTGAATTGTAAGTTTAGATAAAGGCTACTACTCCAAACATTATTTAAAATGAAATTAAATACAAAAGGAGTGAGACTATGACAATATTATCAGTGCAACATGTTTCAAAAACATACGG (double strand) [vraDE-F1]”, the binding entry in data set [1] and in data set [2] was “binds” throughout.
